The values that follow come from the Human Domainome abundance scans (Beltran et al. 2025).

± gives the uncertainty stated by the source.

B1: Retinoic acid receptor beta, residues 85 to 161; numbered along this chain, P10826 (parent)
chain: YKPCFVCQDKSSGYHYGVSACEGCKGFFRRSIQKNMIYTCHRDKNCVINKVTRNRCQYCRLQKCFEVGMSKESVRND

The variants in this series derive from B1. Description: abundance fitness (aPCA) (normalised: wild type 0, dead -1); higher = more abundant; growth selection in yeast, the domain comes from the species named. Particulars: Homo sapiens.
For the variant YKPCFVCQDKSSGYHYGVSACEGCKGFFRRSIQKNMIYTCHRDKNCVINKVTRWRCQYCRLQKCFEVGMSKESVRND [N54W], the abundance fitness is -0.088 ± 0.048.
As to YKPCFVCQDKSSGYHYGVSACEGCKGFFRRSIQKNMIYTCHRDKNCVINKVTRYRCQYCRLQKCFEVGMSKESVRND [N54Y], the abundance fitness amounted to 0.112 ± 0.077.
As for YKPCFVCQDKSSGYHYGVSACEGCKGFFRRSIQKNMIYTCHRDKNCVINKVTRVRCQYCRLQKCFEVGMSKESVRND [N54V], the abundance fitness is 0.11 ± 0.041.
With YKPCFVCQDKSSGYHYGVSACEGCKGFFRRSIQKNMIYTCHRDKNCVINKVTRSRCQYCRLQKCFEVGMSKESVRND [N54S], the abundance fitness turned out to be 0.136 ± 0.042.
Consider YKPCFVCQDKSSGYHYGVSACEGCKGFFRRSIQKNMIYTCHRDKNCVINKVTRRRCQYCRLQKCFEVGMSKESVRND [N54R], for which the abundance fitness is 0.036 ± 0.039.
As to YKPCFVCQDKSSGYHYGVSACEGCKGFFRRSIQKNMIYTCHRDKNCVINKVTRTRCQYCRLQKCFEVGMSKESVRND [N54T], the abundance fitness was 0.185 ± 0.05.
For YKPCFVCQDKSSGYHYGVSACEGCKGFFRRSIQKNMIYTCHRDKNCVINKVTRNACQYCRLQKCFEVGMSKESVRND [R55A], the abundance fitness turned out to be 0.18 ± 0.043.
As to YKPCFVCQDKSSGYHYGVSACEGCKGFFRRSIQKNMIYTCHRDKNCVINKVTRNHCQYCRLQKCFEVGMSKESVRND [R55H], the abundance fitness is 0.205 ± 0.096.
As for YKPCFVCQDKSSGYHYGVSACEGCKGFFRRSIQKNMIYTCHRDKNCVINKVTRNCCQYCRLQKCFEVGMSKESVRND [R55C], the abundance fitness amounted to 0.102 ± 0.093.
In the case of YKPCFVCQDKSSGYHYGVSACEGCKGFFRRSIQKNMIYTCHRDKNCVINKVTRNECQYCRLQKCFEVGMSKESVRND [R55E], the abundance fitness came out at 0.277 ± 0.043.
YKPCFVCQDKSSGYHYGVSACEGCKGFFRRSIQKNMIYTCHRDKNCVINKVTRNICQYCRLQKCFEVGMSKESVRND [R55I]: the abundance fitness is 0.155 ± 0.069.
With YKPCFVCQDKSSGYHYGVSACEGCKGFFRRSIQKNMIYTCHRDKNCVINKVTRNYCQYCRLQKCFEVGMSKESVRND [R55Y], the abundance fitness was determined as 0.077 ± 0.07.
YKPCFVCQDKSSGYHYGVSACEGCKGFFRRSIQKNMIYTCHRDKNCVINKVTRNFCQYCRLQKCFEVGMSKESVRND [R55F]: the abundance fitness is -0.343 ± 0.18.
Regarding YKPCFVCQDKSSGYHYGVSACEGCKGFFRRSIQKNMIYTCHRDKNCVINKVTRNDCQYCRLQKCFEVGMSKESVRND [R55D], the abundance fitness is 0.244 ± 0.065.
On to YKPCFVCQDKSSGYHYGVSACEGCKGFFRRSIQKNMIYTCHRDKNCVINKVTRNVCQYCRLQKCFEVGMSKESVRND [R55V], for which the abundance fitness amounted to 0.227 ± 0.036.
As to YKPCFVCQDKSSGYHYGVSACEGCKGFFRRSIQKNMIYTCHRDKNCVINKVTRNMCQYCRLQKCFEVGMSKESVRND [R55M], the abundance fitness stood at 0.25 ± 0.045.
In the case of YKPCFVCQDKSSGYHYGVSACEGCKGFFRRSIQKNMIYTCHRDKNCVINKVTRNNCQYCRLQKCFEVGMSKESVRND [R55N], the abundance fitness was found to be 0.26 ± 0.065.
As to YKPCFVCQDKSSGYHYGVSACEGCKGFFRRSIQKNMIYTCHRDKNCVINKVTRNTCQYCRLQKCFEVGMSKESVRND [R55T], the abundance fitness stood at 0.239 ± 0.048.
In the case of YKPCFVCQDKSSGYHYGVSACEGCKGFFRRSIQKNMIYTCHRDKNCVINKVTRNSCQYCRLQKCFEVGMSKESVRND [R55S], the abundance fitness came out at 0.265 ± 0.042.
Take YKPCFVCQDKSSGYHYGVSACEGCKGFFRRSIQKNMIYTCHRDKNCVINKVTRNGCQYCRLQKCFEVGMSKESVRND [R55G]: the abundance fitness is 0.262 ± 0.032.
For YKPCFVCQDKSSGYHYGVSACEGCKGFFRRSIQKNMIYTCHRDKNCVINKVTRNLCQYCRLQKCFEVGMSKESVRND [R55L], the abundance fitness turned out to be 0.183 ± 0.038.
Take YKPCFVCQDKSSGYHYGVSACEGCKGFFRRSIQKNMIYTCHRDKNCVINKVTRNKCQYCRLQKCFEVGMSKESVRND [R55K]: the abundance fitness turned out to be 0.198 ± 0.048.
YKPCFVCQDKSSGYHYGVSACEGCKGFFRRSIQKNMIYTCHRDKNCVINKVTRNWCQYCRLQKCFEVGMSKESVRND [R55W]: the abundance fitness was found to be 0.149 ± 0.048.
For YKPCFVCQDKSSGYHYGVSACEGCKGFFRRSIQKNMIYTCHRDKNCVINKVTRNPCQYCRLQKCFEVGMSKESVRND [R55P], the abundance fitness was 0.218 ± 0.061.
For YKPCFVCQDKSSGYHYGVSACEGCKGFFRRSIQKNMIYTCHRDKNCVINKVTRNRLQYCRLQKCFEVGMSKESVRND [C56L] the value was -0.907 ± 0.14; for YKPCFVCQDKSSGYHYGVSACEGCKGFFRRSIQKNMIYTCHRDKNCVINKVTRNRMQYCRLQKCFEVGMSKESVRND [C56M], -0.768 ± 0.17.
The result for YKPCFVCQDKSSGYHYGVSACEGCKGFFRRSIQKNMIYTCHRDKNCVINKVTRNRKQYCRLQKCFEVGMSKESVRND [C56K] reads -0.978 ± 0.24.
Consider YKPCFVCQDKSSGYHYGVSACEGCKGFFRRSIQKNMIYTCHRDKNCVINKVTRNRFQYCRLQKCFEVGMSKESVRND [C56F], for which the abundance fitness was -0.946 ± 0.31.
In the case of YKPCFVCQDKSSGYHYGVSACEGCKGFFRRSIQKNMIYTCHRDKNCVINKVTRNRDQYCRLQKCFEVGMSKESVRND [C56D], the abundance fitness is -0.623 ± 0.23.
In the case of YKPCFVCQDKSSGYHYGVSACEGCKGFFRRSIQKNMIYTCHRDKNCVINKVTRNREQYCRLQKCFEVGMSKESVRND [C56E], the abundance fitness was -0.703 ± 0.11.
As to YKPCFVCQDKSSGYHYGVSACEGCKGFFRRSIQKNMIYTCHRDKNCVINKVTRNRPQYCRLQKCFEVGMSKESVRND [C56P], the abundance fitness was -0.763 ± 0.3.
As for YKPCFVCQDKSSGYHYGVSACEGCKGFFRRSIQKNMIYTCHRDKNCVINKVTRNRGQYCRLQKCFEVGMSKESVRND [C56G], the abundance fitness was -0.773 ± 0.066.
For YKPCFVCQDKSSGYHYGVSACEGCKGFFRRSIQKNMIYTCHRDKNCVINKVTRNRIQYCRLQKCFEVGMSKESVRND [C56I] the value was -1.05 ± 0.42; for YKPCFVCQDKSSGYHYGVSACEGCKGFFRRSIQKNMIYTCHRDKNCVINKVTRNRAQYCRLQKCFEVGMSKESVRND [C56A], -1.16 ± 0.22; for YKPCFVCQDKSSGYHYGVSACEGCKGFFRRSIQKNMIYTCHRDKNCVINKVTRNRNQYCRLQKCFEVGMSKESVRND [C56N], -0.953 ± 0.37.
With YKPCFVCQDKSSGYHYGVSACEGCKGFFRRSIQKNMIYTCHRDKNCVINKVTRNRHQYCRLQKCFEVGMSKESVRND [C56H], the abundance fitness was -0.581 ± 0.32.
